The record followed here is PMC7190159, “The L motifs of two moss pentatricopeptide repeat proteins are involved in RNA editing but predominantly not in RNA recognition”.

What all share (conditions): protein: recombinant; tags: N-term thioredoxin; C-term 6xHis; label: 5'-32P
In data set [1] the target is T1, 56ΔDYW-13L[ED] (Physcomitrella patens, UniProt A0A2K1IWP1 161-764, V592E).
T1 sequence: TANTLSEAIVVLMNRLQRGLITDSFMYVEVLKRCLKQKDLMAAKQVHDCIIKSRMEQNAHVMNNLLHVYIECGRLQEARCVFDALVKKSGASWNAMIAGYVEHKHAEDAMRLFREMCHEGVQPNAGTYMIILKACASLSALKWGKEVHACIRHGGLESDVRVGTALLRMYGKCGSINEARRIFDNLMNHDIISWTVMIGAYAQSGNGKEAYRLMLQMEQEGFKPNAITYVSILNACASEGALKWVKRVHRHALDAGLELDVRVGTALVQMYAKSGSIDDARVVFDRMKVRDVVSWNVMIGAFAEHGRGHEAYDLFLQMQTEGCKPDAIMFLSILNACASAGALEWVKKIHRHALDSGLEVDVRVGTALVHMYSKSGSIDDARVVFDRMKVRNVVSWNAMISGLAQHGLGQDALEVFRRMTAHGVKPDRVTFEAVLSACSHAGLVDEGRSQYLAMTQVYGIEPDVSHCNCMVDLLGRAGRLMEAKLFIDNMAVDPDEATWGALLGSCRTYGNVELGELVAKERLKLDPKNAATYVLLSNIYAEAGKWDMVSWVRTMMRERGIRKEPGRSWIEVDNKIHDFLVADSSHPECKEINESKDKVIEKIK
As to the kind of experiment: EMSA; like wt; 40 mM Tris pH 8.0, 100 mM NaCl, 4 mM DTT, 0.1 mg/mL BSA, 10% glycerol, 25°C; protein 10 min, then 50 pM RNA 15 min; native 6% PAGE. (Mobility shift assays separate free from complexed probe on a gel.)

In data set [2] the target is T2, 56ΔDYW-13L[PD] (Physcomitrella patens, UniProt A0A2K1IWP1 161-764, V592P).
T2 sequence: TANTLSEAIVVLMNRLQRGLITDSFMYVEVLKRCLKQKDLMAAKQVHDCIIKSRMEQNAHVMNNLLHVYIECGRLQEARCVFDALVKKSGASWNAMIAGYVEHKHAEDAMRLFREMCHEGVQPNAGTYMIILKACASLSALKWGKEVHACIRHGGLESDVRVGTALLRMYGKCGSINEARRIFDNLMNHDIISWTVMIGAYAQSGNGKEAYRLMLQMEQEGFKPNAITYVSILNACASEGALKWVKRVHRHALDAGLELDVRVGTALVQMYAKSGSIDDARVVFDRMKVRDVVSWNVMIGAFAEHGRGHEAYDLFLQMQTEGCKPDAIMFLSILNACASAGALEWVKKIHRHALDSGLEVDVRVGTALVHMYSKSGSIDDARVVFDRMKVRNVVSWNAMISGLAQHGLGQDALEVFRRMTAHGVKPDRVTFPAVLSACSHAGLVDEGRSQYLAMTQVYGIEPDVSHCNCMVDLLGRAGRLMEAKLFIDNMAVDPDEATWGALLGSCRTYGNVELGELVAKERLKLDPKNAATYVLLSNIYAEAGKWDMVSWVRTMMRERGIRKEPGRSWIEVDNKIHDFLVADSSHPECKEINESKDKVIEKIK
The data set is described as above.

Data set [3] deals with T3, 56ΔDYW-wt (PpPPR_56 without transit peptide and DYW domain) (Physcomitrella patens, UniProt A0A2K1IWP1 161-764).
T3 sequence: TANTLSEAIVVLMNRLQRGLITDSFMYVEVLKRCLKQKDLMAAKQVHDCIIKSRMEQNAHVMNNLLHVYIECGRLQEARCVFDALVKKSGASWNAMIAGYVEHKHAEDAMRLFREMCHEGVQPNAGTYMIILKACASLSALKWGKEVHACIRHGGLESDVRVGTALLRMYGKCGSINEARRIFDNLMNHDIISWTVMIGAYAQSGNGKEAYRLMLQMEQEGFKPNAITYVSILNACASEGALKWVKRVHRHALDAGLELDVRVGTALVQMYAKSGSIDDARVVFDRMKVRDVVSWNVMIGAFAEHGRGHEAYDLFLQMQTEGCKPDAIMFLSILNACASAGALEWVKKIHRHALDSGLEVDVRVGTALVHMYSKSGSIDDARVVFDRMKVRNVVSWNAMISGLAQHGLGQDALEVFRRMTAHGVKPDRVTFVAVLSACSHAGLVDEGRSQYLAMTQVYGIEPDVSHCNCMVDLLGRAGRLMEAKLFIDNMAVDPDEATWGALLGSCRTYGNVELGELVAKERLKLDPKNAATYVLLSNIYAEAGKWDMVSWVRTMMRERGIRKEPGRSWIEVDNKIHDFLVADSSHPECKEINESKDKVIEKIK
Description: EMSA; 0-100 nM protein, 50 pM RNA; better affinity than for nad3; 40 mM Tris pH 8.0, 100 mM NaCl, 4 mM DTT, 0.1 mg/mL BSA, 10% glycerol, 25°C; protein 10 min, then 50 pM RNA 15 min; native 6% PAGE.

Data set [4] has as its target T4, 56ΔDYW-nad3L (Physcomitrella patens, UniProt A0A2K1IWP1 161-764, V188N;M289T;V390T;D420N;L491N;D521S;V592N;D623S).
T4 sequence: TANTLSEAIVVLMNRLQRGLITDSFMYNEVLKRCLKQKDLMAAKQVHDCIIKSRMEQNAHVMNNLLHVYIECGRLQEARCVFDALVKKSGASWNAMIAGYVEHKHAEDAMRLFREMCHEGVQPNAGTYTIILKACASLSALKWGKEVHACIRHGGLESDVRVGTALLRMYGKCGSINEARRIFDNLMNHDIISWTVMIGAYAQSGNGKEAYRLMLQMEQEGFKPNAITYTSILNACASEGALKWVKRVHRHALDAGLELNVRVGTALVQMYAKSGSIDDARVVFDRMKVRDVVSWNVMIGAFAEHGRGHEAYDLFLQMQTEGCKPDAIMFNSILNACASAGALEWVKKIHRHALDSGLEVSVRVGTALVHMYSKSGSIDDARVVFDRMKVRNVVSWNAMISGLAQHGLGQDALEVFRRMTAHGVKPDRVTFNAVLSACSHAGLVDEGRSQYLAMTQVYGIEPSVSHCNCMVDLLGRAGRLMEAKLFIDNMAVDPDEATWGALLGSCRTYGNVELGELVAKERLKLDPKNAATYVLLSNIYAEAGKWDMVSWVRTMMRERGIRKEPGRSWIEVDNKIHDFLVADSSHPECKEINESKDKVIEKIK
As to the kind of experiment: EMSA; no significant difference from wt; 40 mM Tris pH 8.0, 100 mM NaCl, 4 mM DTT, 0.1 mg/mL BSA, 10% glycerol, 25°C; protein 10 min, then 50 pM RNA 15 min; native 6% PAGE.

The target in data set [5] is T3, 56ΔDYW-wt (PpPPR_56 without transit …). As to the kind of experiment: EMSA; 0-100 nM protein, 50 pM RNA; lower affinity than for nad4; 40 mM Tris pH 8.0, 100 mM NaCl, 4 mM DTT, 0.1 mg/mL BSA, 10% glycerol, 25°C; protein 10 min, then 50 pM RNA 15 min; native 6% PAGE.
Data set [6] shares this target. As to the kind of experiment: EMSA; 100 nM protein; 40 mM Tris pH 8.0, 100 mM NaCl, 4 mM DTT, 0.1 mg/mL BSA, 10% glycerol, 25°C; protein 10 min, then 50 pM RNA 15 min; native 6% PAGE.
Data set [7] deals with T4, 56ΔDYW-nad3L. The description is as above.
Data set [8] deals with T1, 56ΔDYW-13L[ED]. The description is as above.
The target in data set [9] is T2, 56ΔDYW-13L[PD]. Described as above.

Take AUUUUUAUAUAGGUAUAGACGGUAUCUCUUCAUUUU (ssRNA) [nad4-edit]: the binding result in data set [1], in data set [2] and in [3] was “binds” in each case.

Take UUAUUAUAUUUGAUUUGGAAGUCACCUUUUCAUUUC (ssRNA) [nad3-edit]: the binding result in data set [1], in [2], in [4] and in data set [5] was “binds” throughout.

Take UUAUUUUUUUCGUUUCUCUUUUUGUUUUU (ssRNA) [PpPsbI-RNA1]: the binding result in data set [6], in data set [7], in data set [8] and in data set [9] was “no binding” each time.
